Measurements taken from the DeepSol protein solubility set.

Experiment: soluble on expression in E. coli; label from the status in PepcDB or PDB records

Row | Sequence | soluble on expression in E. coli
1 | MAQFIDRRLNGKNKSAVNRQRFLKRHKEQIKESVADAVNRRSITNTETGEDVSIPHKDINEPIFHQGKGGVRERVHPGNDQFITGDKIERPKGGGQGSGSGEGNASPDGEGQDEFVFQISKDEYLDILFEDLELPNLEKNQIAKITEWKTHRAGFQTAGIPSNISVIRSLQQSLARRTAMTAGKKRLLKELEDELTRIKNIEPAQQLEENRLKKEIEELRKKIENVPFIDTFDLRFKNYEKRPVPSSQAVMFCLMDVSGSMDQATKDIAKRFYVLLYLFLTRTYENVDVVFIRHHTQAKEVDEHEFFYSQETGGTIVSSALKLMDEIVKERYPVGQWNIYAAQASDGDNWADDSPRCRDLLVNKLLPNCQYYSYIEITRRSHQTLWHEYEKLTDEFPNFAMKNIRSVEDIFPVFRELFQKETALEHHHHHH | soluble
2 | MGSDKIHHHHHHMKILIDATAALMGGGQTYLINLLNYTEILEHDIIILSPKKLTLPSIQNIHRIDVDKSLENPFIRAVWMRRYLPDLIKERKVDILFCPGGLITKGIPSNCVKVTMFRNMIPFDLKQRVKYPLGYMRFRNWLLERLLLDSMIEADLVIFISEYASKVIKKRAKKKLRNTVIIPHGLSAEFRIFDKKAIPRPQWLPAEDYLLYVSILDVYKAQIELIQGFALLKKWRQTSEKLLLVGPDEERSYYTKMIKKEIVKHGLQNDVIITGPVPYNELPALYYHAKVNIFASECENCPNILLEALGAGRPTLVSDCEPMPEFGGDSVEYFDPTSPEDFANSIIRFIDDENKMKELAKKAGERSLLFDWEKVGRLTWQSIENIYNSKTINM | not soluble
3 | VYWLNWTDRTRKFTIYNDIIERSLLTLKMMSFYNGAVLASLTTSLPEAVGEVRNWDYRFCWLRDASMSIETLFKIGHADATRKFMKFIQSTFVAEHDTYQIMYGIRGERKLTEVILDHLSGYKNSQPVRIGNDAYHQRQNDSFGYLMDLIYQYYRLMPGTLDEIEDMWEMVKSIMTTVMEDWRKPDKGIWEIRGEGQHFVSSKVMCWVALDRGARIARILNKYENSRRWEEEADAIKADVMRNGWKEEIQSFSQAYGNLDLDSSLLLMEPYGFIDADDIRYHKTVKAVKQSLLHKGLMYRYNTHDDFGCPSSAFTICTFWLIRALYVIGEKDEARCLFDEILQYSNHLGLFSEDIDFETKEQLGNFPQAYSHLALVNTAVLFAE | not soluble
4 | MASETENIKYEESFIKNTRGMKLFTCKWVPAKQEPKALVFICHGYAMECSITMNSTARRLVKAGFAVYGIDYEGHGKSDGLSAYVPNFDHLVDDVSTHYTSICEKEENKGKMRFLLGESMGGAVLLLLHRKKPQFWDGAVLVAPMCKIAEEMKPSPLVISILAKLSGVIPSWKIIPGQDIIETAFKQPEIRKQVRENPYCYKGRPRLKTAYELLRVSTDLEKRLNEVSLPFIVLHGEDDKVTDKAVSRQLYEVASSSDKTFKLYPGMWHGLLYGETPENIETVFADIIGWLDKKVADESGGFESELKRKNDGIPLKG | soluble
5 | MGHHHHHHSHSSVTIGRFQSVRYDVNLEKAKELGIPVVRRITGGGSVFHDEYGEITYSVVISEDYHPMLKNIQDSYRFLAGPLVDALKDLGIEAEFSGLNDIVVRGKKISGSAQTRRRGIILQHGTLMYATRLEI | not soluble
6 | GPGSMDNTEETSRVTDQEERTLTETELPAPAEHVLEGDNSASEENRLHAFLIPLEDGEQFARANLQHRWYRGLTKMLWDEELERNGILIVERGESGRNNQSADEEEEEDDDGTDDCVAKMKREFRIKREQDKIVYEEDSTRTETLREEQNAISLIVTLMEEAMDRSILMNEAETMFALILDVLKPRVHYRYIYAWGVVTCCSFKPLKSEMDRLRPSDRHKPPYMRKSLPTCRVPLEPIYYLPDGGKKMRAMNELNDVRAIGWV | not soluble
7 | MEIKERIQLLLSEMNRGVYEKEAEIGLSLLAALAGESILLLGPPGVAKSMVARRLKRAFVDARAFEYLMSRFSTPDEIFGPVSISRLKESDKYERAVDGYLPTADVVFLDEIWKAGPAIQNTLLTVINEKLFRNGDTELKLPLKLLVAASNELPTQGEGLEALWDRFLIRIISTCVKQEEAFYQMLLDDDDEEEQEACRWQISDEEYAGWQKEIRQIKVSAEVLSCITEIRKNLEKVEIQGSEVHRNVYVSDRRWKNIVKLLKASAFIHGRKEVCLTDLLPVYHCLWNEPEECADIRQIVVRALFVPYVKEIAAINLSLKSDLKVSRVREALEKARQKGDRRDDDLMIIDHFYYQIENHGTGNTYIFIVDYKNLKEYSPKDVPATGVMYADPLNPKRTIIRTFSDATKMKEQGAERVTLYRDEKNLYINGVRFPMRRLKRGEQQQLWLGNMTLTDRDYETELETAHGRIEKLVKDLSENIFISEEDKKGVAQYVATLRKEIAWARVDVRKLRYGDES | not soluble
8 | NYGVDFSDIAGQSTSIRALEIAASGGHNIILYGPPGSGKTMLAKRLPTILPPLSYKEALEVSKIYSITGQFDNKNLVFKRPFRAPHHTSSKISLVGGGSKLFPGEISLSHNGVLFLDELLEFKRSSIEVLRQPLEDKVIRFSKSSGNVTYPANFMFISAMNLCPCGNYG | not soluble
9 | MSLTQSSKLIAVIVANIDDYFSTELFKGISSILESRGYIGVLFDANADIEREKTLLRAIGSRGFDGLILQSFSNPQTVQEILHQQMPVVSVDREMDACPWPQVVTDNFEAAKAATTAFRQQGYQHVVVLTSELELSRTRQERYRGILAAAQDVDVLEVSESSYNHSEVHQRLTQLITQNDQKTVAFALKERWLLEFFPNLIISGLIDNQTVTATGFADTDFIRRMEPKLTLITQNPFLMGASSAEIMLRQLAGEKVAPEKMVIPAKLQEGHHHHHH | soluble
10 | MGSDKIHHHHHHMQLLEFPNIAIIAGENAVPVAQLPLVWQDIAKGTANVGLCNPQIYVEMAQLFLYKLEQGDVDLFNERPELAHLKSSFCQLFGQLGRETLEFYGYDFMTHNYPNFEEILREVESKDADYGKVARIGLELFQEFGYELPASFYHVHLAPIYRDHVFEERALRFDKRDIEHKRSWDAILHAGKVFAVQMKVQSIASKYGFTYQHGCGCNSHLSSIDESRGTFAYELSQEKRDRWIRSFIWTAWYEYAFFPIVPNTSYLV | not soluble
11 | MSETFSGFDTAPVARVQAAFEEIAHRSMHDLSFLHPTMPVHVSDFTLFEGQWTGTVITPWMLSALIFPGPDQIWPRRTVGEKLGLQLPYGTMTFTVGELEGVSQYLACSLMSPLSRSLSPEEGVRLADDCARMLLSLPVSNPDAPQTSRRALLFGRRSCENA | not soluble
12 | MAHRRKFGGGRGEAVAKAVGIKGSALPTVIDATAGLGRDAFVLAAIGCQVRLVERHPVVFLLLQDGLNRAYQDEEIGEMLQQNLHLLNVQHINELDPNSDYADVVYLDPMYPHKQKSALVKKEMRVFQHLVGADLDADELLLPALQLAKKRVVVKRPDYAEFLCGKQPHFSHETKNHRFDIYMGASQCLEHHHHHH | not soluble
13 | MSNAYEEYMRQMVIPMRQELVRSGFEELTTEEAVTEFMENTSGTTLVVVNSVCGCAAGLARPSAGQAVVRAEKQPDHLVTVFAGQDKDATAKMREYFGEIPPSSPSMALLKGKEVVHFIHRHEIEGATMDEIITNLEQAFEKNC | soluble
14 | MSLSEYQDLSQQIELIATAEESEQTHLLGEMVENGLDEGSIALILEAFPVEQRVRLWRSLPLEMHIDVLTEMRAEVRISVINALSEIELKLTLAKLDNLSLIEWEDSLPDDIISEALSLINRDELELYDQANEFADDEIGHWADRKVYTLPFSISVRRAKVLLDKYHYDSPQYIYLINKAKKFRGLVSFSDVLQAEETTQLKNLRMEELVTLNAKQTLSDAVDALEHTTLPIVPVLSDDETLIGEIDWHFALSVQREMYEARLMAGTGMDEGDDLFAPVIKSEGHHHHHH | soluble
